Source: article PMC8635274

Tests used:
[1] = target: mCherry-FKBP-Ubc9 (UniProt P63279)
[2] = target: mCherry-FKBP-Ubc9 (UniProt P63279); remark: listed apart in the source

Row | KM of SUMOylation of RanGAP* by E2 (Ubc9), without scaffolds [1] [µM] | KM of SUMOylation of RanGAP by E2 (Ubc9), without scaffolds [2] [µM] | Substance
1 | 150 | – | FKBP-EGFP-RanGAP* (from UniProt P46060 398-587)
2 | – | 2.5 | FKBP-RanGAP (from UniProt P46060 398-587)
